In US20240011000 one finds activity (% assays positive) data, which are given here for two substances.

Data set [1] concerns Br512 (villin headpiece HP47-Bst-LF fusion DNA polymerase) (Geobacillus stearothermophilus / Gallus gallus fusion).
For data set [2], the system named is Bst-LF (DNA polymerase I large fragment) (Geobacillus stearothermophilus). To be noted: RT-LAMP-OSD, G6D buffer, 65 C.
Another data set concerns the target Bst 2.0 DNA polymerase (UniProt P52026). The settings on record: RT-LAMP-OSD, 300 genomes, isothermal buffer, 65 C.
Chain of UniProt P52026 (P52026 297-876): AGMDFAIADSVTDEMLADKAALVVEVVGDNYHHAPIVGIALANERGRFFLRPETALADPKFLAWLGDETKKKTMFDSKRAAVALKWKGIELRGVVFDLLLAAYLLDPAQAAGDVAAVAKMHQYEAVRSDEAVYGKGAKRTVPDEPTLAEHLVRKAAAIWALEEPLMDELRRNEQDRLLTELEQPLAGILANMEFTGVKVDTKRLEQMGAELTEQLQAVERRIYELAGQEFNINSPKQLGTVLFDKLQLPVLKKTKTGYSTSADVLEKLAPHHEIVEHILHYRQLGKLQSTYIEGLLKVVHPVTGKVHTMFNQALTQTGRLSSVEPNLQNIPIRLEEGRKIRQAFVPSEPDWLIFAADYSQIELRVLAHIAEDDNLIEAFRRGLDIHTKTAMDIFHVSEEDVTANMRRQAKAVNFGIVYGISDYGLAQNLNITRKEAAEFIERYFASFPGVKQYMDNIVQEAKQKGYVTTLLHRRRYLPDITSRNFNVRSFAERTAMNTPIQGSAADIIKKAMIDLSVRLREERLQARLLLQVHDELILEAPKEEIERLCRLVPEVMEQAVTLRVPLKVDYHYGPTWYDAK

SARS-CoV-2 RNA, 6-Lamb target: the values for the activity (% assays positive) (in data set [1]; in data set [2]; with Bst 2.0 DNA polymerase) were 100, 33 and 75, respectively.
With SARS-CoV-2 RNA, NB (N gene) target, the activity (% assays positive) in data set [1] came out at 80; in data set [2], 16; in the data set with Bst 2.0 DNA polymerase, 25.
